Measurements: patent US20250152746A1, “BASE EDITING OF ANGPTL3 AND METHODS OF USING SAME FOR TREATMENT OF DISEASE” (Verve Therapeutics, Inc., priority 2020, published 2025)
m = 2'-O-methyl; r = 2'-OH (RNA)

B1: GA224: PCSK9 gRNA; protospacer GGCCGCTGACCACCCCTGCC (SEQ ID NO: 218) (nucleic acid)
guide: GGCCGCUGACCACCCCUGCCGUUUUAGAGCUAGAAAUAGCAAGUUAAAAUAAGGCUAGUCCGUUAUCAACUUGAAAAAGUGGCACCGAGUCGGUGCUUUU
modifications: sugars from the 5' end m3 r94 m3, linkages s3 o93 s3 (s phosphorothioate, o phosphodiester), T or U not given here
B2: GA222: PCSK9 gRNA; protospacer TGGCAGGGGTGGTCAGCGGC (SEQ ID NO: 216) (nucleic acid)
guide: UGGCAGGGGUGGUCAGCGGCGUUUUAGAGCUAGAAAUAGCAAGUUAAAAUAAGGCUAGUCCGUUAUCAACUUGAAAAAGUGGCACCGAGUCGGUGCUUUU
modifications: sugars from the 5' end m3 r94 m3, linkages s3 o93 s3 (s phosphorothioate, o phosphodiester), T or U not given here
B3: GA223: PCSK9 gRNA; protospacer GCTGACCACCCCTGCCAGGT (SEQ ID NO: 217) (nucleic acid)
guide: GCUGACCACCCCUGCCAGGUGUUUUAGAGCUAGAAAUAGCAAGUUAAAAUAAGGCUAGUCCGUUAUCAACUUGAAAAAGUGGCACCGAGUCGGUGCUUUU
modifications: sugars from the 5' end m3 r94 m3, linkages s3 o93 s3 (s phosphorothioate, o phosphodiester), T or U not given here
B4: GA220: PCSK9 gRNA; protospacer GTGCTCAACTGCCAAGGGAA (SEQ ID NO: 214) (nucleic acid)
guide: GUGCUCAACUGCCAAGGGAAGUUUUAGAGCUAGAAAUAGCAAGUUAAAAUAAGGCUAGUCCGUUAUCAACUUGAAAAAGUGGCACCGAGUCGGUGCUUUU
modifications: sugars from the 5' end m3 r94 m3, linkages s3 o93 s3 (s phosphorothioate, o phosphodiester), T or U not given here
B5: GA216: PCSK9 gRNA; protospacer CCGGGATGCCGGCGTGGCCA (SEQ ID NO: 210) (nucleic acid)
guide: CCGGGAUGCCGGCGUGGCCAGUUUUAGAGCUAGAAAUAGCAAGUUAAAAUAAGGCUAGUCCGUUAUCAACUUGAAAAAGUGGCACCGAGUCGGUGCUUUU
modifications: sugars from the 5' end m3 r94 m3, linkages s3 o93 s3 (s phosphorothioate, o phosphodiester), T or U not given here
B6: GA225: PCSK9 gRNA; protospacer GGCATCGTCCCGGAAGTTGC (SEQ ID NO: 219) (nucleic acid)
guide: GGCAUCGUCCCGGAAGUUGCGUUUUAGAGCUAGAAAUAGCAAGUUAAAAUAAGGCUAGUCCGUUAUCAACUUGAAAAAGUGGCACCGAGUCGGUGCUUUU
modifications: sugars from the 5' end m3 r94 m3, linkages s3 o93 s3 (s phosphorothioate, o phosphodiester), T or U not given here
B7: GA160: PCSK9 gRNA; protospacer GCCTTGCGTTCCGAGGAGGA (SEQ ID NO: 154) (nucleic acid)
guide: GCCUUGCGUUCCGAGGAGGAGUUUUAGAGCUAGAAAUAGCAAGUUAAAAUAAGGCUAGUCCGUUAUCAACUUGAAAAAGUGGCACCGAGUCGGUGCUUUU
modifications: sugars from the 5' end m3 r94 m3, linkages s3 o93 s3 (s phosphorothioate, o phosphodiester), T or U not given here
B8: GA218: PCSK9 gRNA; protospacer CGCTGACCACCCCTGCCAGG (SEQ ID NO: 212) (nucleic acid)
guide: CGCUGACCACCCCUGCCAGGGUUUUAGAGCUAGAAAUAGCAAGUUAAAAUAAGGCUAGUCCGUUAUCAACUUGAAAAAGUGGCACCGAGUCGGUGCUUUU
modifications: sugars from the 5' end m3 r94 m3, linkages s3 o93 s3 (s phosphorothioate, o phosphodiester), T or U not given here
B9: GA227: PCSK9 gRNA; protospacer GTCCCGGAAGTTGCCGGCAG (SEQ ID NO: 221) (nucleic acid)
guide: GUCCCGGAAGUUGCCGGCAGGUUUUAGAGCUAGAAAUAGCAAGUUAAAAUAAGGCUAGUCCGUUAUCAACUUGAAAAAGUGGCACCGAGUCGGUGCUUUU
modifications: sugars from the 5' end m3 r94 m3, linkages s3 o93 s3 (s phosphorothioate, o phosphodiester), T or U not given here
B10: GA219: PCSK9 gRNA; protospacer GGCAGGGGTGGTCAGCGGCC (SEQ ID NO: 213) (nucleic acid)
guide: GGCAGGGGUGGUCAGCGGCCGUUUUAGAGCUAGAAAUAGCAAGUUAAAAUAAGGCUAGUCCGUUAUCAACUUGAAAAAGUGGCACCGAGUCGGUGCUUUU
modifications: sugars from the 5' end m3 r94 m3, linkages s3 o93 s3 (s phosphorothioate, o phosphodiester), T or U not given here
B11: GA221: PCSK9 gRNA; protospacer TCATGGCACCCACCTGGCAG (SEQ ID NO: 215) (nucleic acid)
guide: UCAUGGCACCCACCUGGCAGGUUUUAGAGCUAGAAAUAGCAAGUUAAAAUAAGGCUAGUCCGUUAUCAACUUGAAAAAGUGGCACCGAGUCGGUGCUUUU
modifications: sugars from the 5' end m3 r94 m3, linkages s3 o93 s3 (s phosphorothioate, o phosphodiester), T or U not given here
B12: GA214: PCSK9 gRNA; protospacer CCTTGGCCACGCCGGCATCC (SEQ ID NO: 208) (nucleic acid)
guide: CCUUGGCCACGCCGGCAUCCGUUUUAGAGCUAGAAAUAGCAAGUUAAAAUAAGGCUAGUCCGUUAUCAACUUGAAAAAGUGGCACCGAGUCGGUGCUUUU
modifications: sugars from the 5' end m3 r94 m3, linkages s3 o93 s3 (s phosphorothioate, o phosphodiester), T or U not given here
B13: GA215: PCSK9 gRNA; protospacer CAGCGGCCGGGATGCCGGCG (SEQ ID NO: 209) (nucleic acid)
guide: CAGCGGCCGGGAUGCCGGCGGUUUUAGAGCUAGAAAUAGCAAGUUAAAAUAAGGCUAGUCCGUUAUCAACUUGAAAAAGUGGCACCGAGUCGGUGCUUUU
modifications: sugars from the 5' end m3 r94 m3, linkages s3 o93 s3 (s phosphorothioate, o phosphodiester), T or U not given here
B14: GA217: PCSK9 gRNA; protospacer GTGGTCAGCGGCCGGGATGC (SEQ ID NO: 211) (nucleic acid)
guide: GUGGUCAGCGGCCGGGAUGCGUUUUAGAGCUAGAAAUAGCAAGUUAAAAUAAGGCUAGUCCGUUAUCAACUUGAAAAAGUGGCACCGAGUCGGUGCUUUU
modifications: sugars from the 5' end m3 r94 m3, linkages s3 o93 s3 (s phosphorothioate, o phosphodiester), T or U not given here

system: PCSK9 gene; assay: PCSK9 gRNA/SpCas9 editing in primary human hepatocytes (Tables 2, 4); assay type: cell-based; settings: 100 ng/RNA/mL; SpCas9 mRNA MS002 1:1 by weight
In short: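 Editing at the PCSK9 site quantified by NGS of PCR amplicons from genomic DNA. Input: SpCas9 mRNA with gRNA, 1:1 by weight, transfected into primary human hepatocytes at 2500, 500 or 100 ng RNA/mL (tracr-modified guides at 2500, 1250, 500, 250 ng/mL).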

Point of comparison: B5, “Human Primary Hepatocyte Editing % 100” value 0.95%. Against it:
- B1 — higher, 1.01%
- B2 — lower, 0.5%
- B3 — higher, 1.44%
- B4 — higher, 2.17%
- B6 — lower, 0.89%
- B7 — higher, 1.19%
- B8 — higher, 3.81%
- B9 — lower, 0.02%
- B10 — higher, 1.28%
- B11 — higher, 1.11%
- B12 — higher, 1.94%
- B13 — lower, 0.13%
- B14 — lower, 0.77%

same assay, conditions: 500 ng/RNA/mL; SpCas9 mRNA MS002 1:1 by weight

Point of comparison: B13, “Human Primary Hepatocyte Editing % 500” value 1.01%. Against it:
- B1 — higher, 2.19%
- B2 — lower, 0.66%
- B3 — higher, 7.28%
- B4 — higher, 9.12%
- B5 — higher, 3.7%
- B6 — higher, 6.39%
- B7 — higher, 5.58%
- B8 — higher, 8.96%
- B9 — higher, 8.29%
- B10 — higher, 4.57%
- B11 — higher, 7.48%
- B12 — higher, 6.28%
- B14 — higher, 2.75%

same assay, conditions: 2500 ng/RNA/mL; SpCas9 mRNA MS002 1:1 by weight

Point of comparison: B1, “Human Primary Hepatocyte Editing % 2500” value 13.02%. Against it:
- B2 — lower, 2.04%
- B3 — higher, 17.5%
- B4 — higher, 21.87%
- B5 — higher, 14.65%
- B6 — higher, 18.82%
- B7 — higher, 23.3%
- B8 — higher, 31.71%
- B9 — higher, 32.09%
- B10 — higher, 15.97%
- B11 — higher, 29.35%
- B12 — higher, 22.92%
- B13 — lower, 4.94%
- B14 — higher, 15.31%

system: PCSK9 gene; assay: PCSK9 gRNA/SpCas9 editing in primary cynomolgus hepatocytes (Tables 2, 22); assay type: cell-based, cynomolgus monkey; settings: 100 ng/RNA/mL; SpCas9 mRNA MS002 1:1 by weight

Point of comparison: B6, “Cyno Primary Hepatocyte Editing % 100” value 2.03%. Against it:
- B1 — higher, 2.61%
- B2 — lower, 0.88%
- B3 — higher, 3.46%
- B4 — higher, 3.13%
- B5 — lower, 1.77%
- B7 — lower, 1.38%
- B8 — higher, 5.42%
- B9 — lower, 0.56%
- B10 — lower, 0.35%
- B11 — higher, 2.82%
- B12 — higher, 3.06%
- B14 — higher, 2.6%

same assay, conditions: 500 ng/RNA/mL; SpCas9 mRNA MS002 1:1 by weight

Point of comparison: B12, “Cyno Primary Hepatocyte Editing % 500” value 14.84%. Against it:
- B1 — lower, 12.34%
- B2 — lower, 3.32%
- B3 — higher, 21.4%
- B4 — lower, 12.39%
- B5 — lower, 4.97%
- B6 — lower, 3.11%
- B7 — lower, 6.60%
- B8 — higher, 19.95%
- B9 — lower, 4.58%
- B10 — lower, 11.89%
- B11 — higher, 20.27%
- B13 — lower, 1.07%
- B14 — lower, 10.2%

same assay, conditions: 2500 ng/RNA/mL; SpCas9 mRNA MS002 1:1 by weight

Point of comparison: B11, “Cyno Primary Hepatocyte Editing % 2500” value 57.4%. Against it:
- B1 — lower, 47.5%
- B2 — lower, 16.7%
- B3 — higher, 57.58%
- B4 — lower, 45.17%
- B5 — lower, 37.79%
- B6 — lower, 8.57%
- B7 — lower, 23.15%
- B8 — higher, 58.66%
- B9 — lower, 32.41%
- B10 — lower, 48.67%
- B12 — lower, 50.35%
- B13 — lower, 7.52%
- B14 — lower, 39.21%
